Laboratory results taken from patent US20250382354A1 (INSTITUTE FOR RESEARCH IN BIOMEDICINE IRB, published 2025).
Residue numbers refer to the chain shown, from its start.

B1: fp.007 (antibody, V domains shown)
VH: EVQLVESGGGLVKPGGSLRLSCAGTGFIFSDAWMTWVRQAPGKGLEWVGRIKSKADGGTTDYAAPVKGRFTISRDDSKNTLYLEINSLKTEDTAVYYCTTGRSRYCIGAVCYYFDHWGQGTLVTVSS
VL: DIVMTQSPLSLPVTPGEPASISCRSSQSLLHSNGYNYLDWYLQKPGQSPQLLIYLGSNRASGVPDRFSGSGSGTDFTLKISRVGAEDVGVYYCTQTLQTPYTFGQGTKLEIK
B2: hr2.090 (antibody, V domains shown)
VH: EVQLLESGGGLVQPGGSLRLSCAASGVTFSRYAMSWVRQAPGKGLEWVSTISGGGGGTYYADSVKGRFTISRDNSKNTLYLQMNSLRAEDTAVYYCATLLTVPGPYYFEYWGQGTLVTVSS
VL: EIVLTQSPGTLSLSPGERATLSCRASQSVSSSYLAWYQQKPGQAPRLLIYGASSRATGIPDRFSGSGSGTDFTLTISRLESEDFAVYYCQHSRFTFGPGTRVDIK
B3: hr2.019 (antibody, V domains shown)
VH: EVQLVESGGGLVKPGGSLRLSCAASGSSVIDVWMNWVRQAPGKGLEWVGRIKTKASGAATDYGAPVKGRFTISRDDSKNLSYLQMNSLRAEDTGIYYCTTSPLPNFDYWGRGTLVTVSS
VL: DIVMTQSPDFLAVSLGETATINCRSSQSVFYFANNKNYLAWYQQKPGQPPKLLIYWASKRESGVPDRFSGSGSGTDFTLTISSLQAEDVATYYCQQYSSPAITFGPGTKVDIK
B4: rbd.142 (antibody, V domains shown)
VH: EVQLVESGGGVVQPGRSLRLSCVASGLTFSRYGMHWVRQAPGKGLEWVAVTTYDGSNKDYADSVKGRFTISRDNSKNTLYLQMNSLRAEDTAVYYCAKVGGGEYCSGGSCYGSYGMDVWGQGTTVTVSS
VL: not shown
B5: rbd.035 (antibody, V domains shown)
VH: EVQLLESGGGLIEPGGSLRLSCAASGFPFNTFAMTWVRQPPGKGLEWVATISSRGDYTFYADFVKGRFSISRDNANNALWLDMSGLRAEDTALYYCAKGESGYDLYLYGLDLWGQGTTVTVSS
VL: DIQMTQSPSSLSASVGDGVTITCRASQNINNYLSWYQKKAGKAPKLLIYGASTLHSGVPSRFSGSGSGTDFTLTISSLQPEDFASYYCQQNSPTPPWTFGQGTKVEIK
B6: rbd.117 (antibody, V domains shown)
VH: EVQLVESGGGLVQPGGSLRLSCAASGFTFSRYAMSWVRQAPGKGLEWVSGLSGSGDSTYYADSVKGRFTISRDNSKKTLNLQMNSLRPEDTAVYYCAKGSRFGIDYFDCWGQGTLVTVSS
VL: DIQMTQSPSTLSASVGDRVTITCRASQSISSWLAWYQLKPGKAPKLLIYDASSLESGVPSRFSGSGSGTEFTLTISSLQPDDFATYYCQQYNTYPFSFGPGTKVDIK
B7: rbd.123 (antibody, V domains shown)
VH: QVQLVQSGAEVKKPGSSVKVSCKASGGAFRMYAISWVRQAPGQGLEWMGGIIPISGTATYTQNFQGRVTITVDRSTSTAYMELSSLRSDDTALYYCARGPRTGYDYFDFWGQGTLVTVSS
VL: B6 VL with L38Q, K45N, N92K, T93S, F96Y, S97T, P100Q, V104L, D105E
B8: sd1.127 (antibody, V domains shown)
VH: EVQLVESGGALVKPGGSLTLSCVASGFTFSHAWMTWVRQAPGKGLEWVGRIKTKTEGGTIDYAAPLRGRFTISRDDSKNTLYLRMNSLKIEDTAKYYCTTHSSPDYWGQGTLVTVSS
VL: DIQMTQSPSSLSASIGDRVTITCRASQGIGNSLLWYQQKRGKVPKLLIYAASTLQSGVPSRFSGSGSGTDFTLTISSLQPEDVATYYCQRYNSAPLTFGGGTKVEIK
B9: sd1.108 (antibody, V domains shown)
VH: QVQLVQSGAEVKKPGASVKVSCKASGYTFTSYYIHWVRQTPGQGLEWMGIINPRGGSTSYPQKFQGRVSMTRDTSTSTVFMELSSLRSDDTAVYYCAREHREDTAMDNQPSDSWGQGTLVTVSS
VL: DIVMTQSPDSLSVSLGERATINCKSSRSVFYSSNNKSYLAWYQQKPGQPPKLLIYWASTRESGVRDRFSGSGSGTDFTLTISSLQAEDVAVYYCQQYYNTPYTFGQGTKLEIK
B10: rbd.106 (antibody, V domains shown)
VH: EVQLVQSGAEVKKPGESLKISCKGSGYSFYNHWIAWVRQMPGKGLEWMGIIYPYDSDTRYSPSFQGQVTISADKSITTAYLQWSSLKASDTAIYYCARRSDYGEFGGHSDYWGQGTLVTVSS
VL: not shown
B11: rbd.143 (antibody, V domains shown)
VH: EVQLVESGGGLVQPGGSLRLSCSASGFTFRRYAMHWVRQAPGKGLQHVSAISSDGDNTHYADSVKGRFTISRDNFKNTLHLQMSSLRPEDTAVYYCVKDPFSNFHYFDCWGQGILVTVSS
VL: not shown
B12: rbd.049 (antibody, V domains shown)
VH: QLQLQESGPGLVKPSETLSLSCTVSGGSISSKSDYWGWIRQSPGKGLEWIGSIYYTGTTYYNPSLKSRVSISLDKSKNQFSLKLNSLTAADTALYYCARDPSIAVATTVYFDAWGQGTLVTVSS
VL: EIVLTQSPGTLSLSPGERATLSCRASESVKSNYLAWYQQKLGQPPRLLIFGASTRATGIPDRFSGSGSGTDFTLTISRLEPEDFAVYYCQQYHTSPPRYTFGQGTKLEIK
B13: rbd.048 (antibody, V domains shown)
VH: EVQLVESGGGLVQPGGSLRLSCAASGFTVSSNYMTWVRQAPGKGLEWVSVIYSGGSTFYTDSVKGRFTISRDNSKNTLYLQMNSLRAEDTAVYYCARDVVYYGMDVWGQGTTVTVSS
VL: DIQMTQSPSSLSASVGDRVTITCRASQSISSYLNWYQQKPGKAPKLLIYAASSLQSGVPSRFSGSGSGTDFTLTISSLQPEDFATYYCQESYSNSPYTFGQGTKLEIK
B14: rbd.113 (antibody, V domains shown)
VH: EVQLVQSGAAVKKPGESLKISCKGSGYSFTNYWIGWVRQMPGKGLELMGIIYVGDSDTRYSPSFQGQVTISADKSITTAYLQWSSLKASDSAIYYCARQRCGGDCPFDLWGRGTLVTVSS
VL: DIQMTQSPSTLSASVGDRVTITCRASQSINRWLAWYQQKPGKAPELLIYDASDLESGVPSRFSGSGSGTEFTLTISSLQPDDFATYYCQQYNSYWTFGQGTKVEIK
B15: rbd.031 (antibody, V domains shown)
VH: EVQLVESGGGVVQPGRSLRLSCAASGFTFKTYGMHWVRQAPGKGLEWVAVISYEGSNEYYAESVKGRFTISRDNSKNTLYLHMNSLRAEDTAVYYCAKGEYYYHSSTYYYLDYWGRGTLVTVSS
VL: B14 VL with N30S, R31S, E45K, L46V, D53S, E55Q, S60L, N92D, S93T
B16: sd1.034 (antibody, V domains shown)
VH: EVQLVESGGGVVQPGRSLRLSCAASGFSFSNYGMHWVRQAPGKGLEWVAVISYDGSHKSFADSVKGRFTISRDNSKNTLNLQMNSLRREDTAVYYCATDQGGSLGYWGQGTLVTVSS
VL: QSALTQPASVSGSPGQSITISCTGTSGDVGGYNYVSWYQHHPGKAPKLMIYDVSNRPSGVSNRFSGSKSGNTASLTISGLQAEDEADYYCSSYTSTSTSWVFGGGTKLTVL
B17: rbd.112 (antibody, V domains shown)
VH: EVQLVQSGAEVKKSGESLKISCKSSGYSFTTYWIAWVRQMPGKGLEWMGIIYPGHSDARYSPSFQGHVTISADKSISTAYLQWRSLKASDTAIYYCARLSYYDVSNFYYYDSYWFDSWGLGTLVTVSS
VL: QSVLTQPPSVSGAPGQRVTISCTGSSSNLGAGYDVHWYQQLPGTAPKLLIYANSNRPSGVPDRFSGSKSGTSASLAMTGLQAEDEADYYCQSYDSSLGGYVFGFGTKVTVL
B18: rbd.043 (antibody, V domains shown)
VH: QVQLVQSGAEVKKPGSSVKVSCKVSGGSFSNYGISWVRQAPGQGLEWMGGIIPLFGPADYAQKVQGRVTITADKSTSTAYMELRSLRSEDTAVYFCARGVEIVATIVGPLVREDHYYYYGMDVWGQGTTVTVSS
VL: not shown
B19: sd1.040 (antibody, V domains shown)
VH: QVQLVQSGAEVKKPGASVKVSCKASGYTFTSFYIHWVRQAPGQGLEWMGIIDPSGGSTSYPQKFQGRVTMTRDTSTSTVYMDLSSLRSEDTAVYYCTRDGSAGDNSWFDPWGQGTLVTVSS
VL: not shown
B20: rbd.141 (antibody, V domains shown)
VH: EVQLVESGGGVVQPGRSLRLSCAASGFTFSSYGMHWVRQAPGKGLEWVAVISYDGKIKYYADSVEGRFTISRDNSKNALYLQMNSLRAEDTAVYYCAKYGIVTSFGVVPPYDMDVWGQGTTVTVSS
VL: DVVMTQSPLSLPVTLGQPASISCRSSQSLVYSDGNTFLNWFQQRPGQSPRRLIYKVSDRDSGVPDRFSGSGSGTDFTLKISRVEAEDVGVYYCMQGTNWPPTFGQGTKVEIK
B21: rbd.110 (antibody, V domains shown)
VH: EVQLVESGGGVVQPGRSLRLSCVASGFTFSRYGMHWVRQAPGKGLEWVATILYDGSDQYYAESVKGRFTISRDNSKNTLYLQMNSLREADTAVYYCAKTSYGYAYNFRLYFDYWGQGTLVTVSS
VL: SYELTQPPSVSVAPGKTATITCGGNNIGSAGVHWYQQRPGQAPVLVVYDDSDRPSGIPERFSGSTSGNTATLTISRVEAGDEADYYCQVWDSNSAPVIFGGGTKLTVL
B22: rbd.045 (antibody, V domains shown)
VH: QVQLQESGPGLVKPSETLSLTCTVSGGAFRSFFWTWIRQPPGKGLEWIGNIYYSGSTNYNPSLKSRVTISQDMSENQFSLKLSSVTAADTAVYYCARSQWLRGNFDHWGQGILVTVSS
VL: NFMLTQPHSVSESPGKTVTISCTATSGYIASNYVQWYQQRPGSAPTTVIYEDNQRPSGVPDRFSGSIDSSSNSASLTISGLKPEDEADYYCQSFDTAYAVFGGGTQLTVL
B23: rbd.038 (antibody, V domains shown)
VH: QVQLVQSGAEVKKPGASVKVSCKASGYTFSGYYMHWVRQAPGQGLEWVGWISPTSGGTKYAQKFQGRVTMTRDTSITTVYMELNRLRSDDTAVYYCAREPFPYCTSDICHSNYFYYYAMDVWGQGTTVTVSS
VL: QSALTQPPSASGSPGQSVTISCTGSSSDLGDHNYVSWYQQHPGKAPKVMIYEVSKRPSGVPDRFSGSKSGNTASLTVSGLQAEDEADYYCSSYAGSLYVFGTGTKVTVL

What follows are binders tested against C-terminally truncated SARS-CoV-2 S protein (pSARS-CoV2-Strunc), ancestral (SARS-CoV-2, UniProt P0DTC2 14-1273) (assay: cell-based or functional assay).

Question: Which “Ancestral Pseudovirus IC50” value does the source give for B1 here?
Answer: The value was 11100 ng/mL.

Question: And the “Ancestral Pseudovirus IC50 (on cells with [not given])” value?
Answer: Its value is 3980 ng/mL.

Question: Which “Ancestral Pseudovirus IC50” value does the source give for B2 here?
Answer: The value was 1020 ng/mL.

Question: For B3, which “Ancestral Pseudovirus IC50” value is on record?
Answer: The value was 1220 ng/mL.

The binders below were run against SARS-CoV-2 S of the Ancestral pseudovirus (pSARS-COV2-Strunc) (SARS-CoV-2 (ancestral), UniProt P0DTC2 14-1254) (assay: cell-based or functional assay).

Question: Which “Ancestral Pseudovirus IC50” value does the source give for B4 here?
Answer: Its value is 5090 ng/mL.

Question: Which “Ancestral Pseudovirus IC50” value does the source give for B5 here?
Answer: The value was 1.52 ng/mL.

Question: With B6 as the binder, how does the “Ancestral Pseudovirus IC50” value read?
Answer: Its value is 203 ng/mL.

Question: How did the “Ancestral Pseudovirus IC50” value turn out when B7 was run?
Answer: The value was 1210 ng/mL.

Question: B8 was tested. Which “Ancestral Pseudovirus IC50” value did it give?
Answer: Its value is 6680 ng/mL.

Question: B9 was tested. Which “Ancestral Pseudovirus IC50” value did it give?
Answer: The value was 446 ng/mL.

Question: B10 was tested. Which “Ancestral Pseudovirus IC50” value did it give?
Answer: Its value is 67.4 ng/mL.

Question: Which “Ancestral Pseudovirus IC50” value does the source give for B11 here?
Answer: Its value is 280 ng/mL.

Question: For B12, which “Ancestral Pseudovirus IC50” value is on record?
Answer: The value was 3710 ng/mL.

Question: How did the “Ancestral Pseudovirus IC50” value turn out when B13 was run?
Answer: Its value is 2.75 ng/mL.

Question: For B14, which “Ancestral Pseudovirus IC50” value is on record?
Answer: Its value is 373 ng/mL.

Question: Which “Ancestral Pseudovirus IC50” value does the source give for B15 here?
Answer: The value was 862 ng/mL.

Question: Which “Ancestral Pseudovirus IC50” value does the source give for B16 here?
Answer: Its value is 387 ng/mL.

Question: With B17 as the binder, how does the “Ancestral Pseudovirus IC50” value read?
Answer: The value was 86.7 ng/mL.

Question: Which “Ancestral Pseudovirus IC50” value does the source give for B18 here?
Answer: The value was 0.573 ng/mL.

Question: B19 was tested. Which “Ancestral Pseudovirus IC50” value did it give?
Answer: The value was 245 ng/mL.

Question: How did the “Ancestral Pseudovirus IC50” value turn out when B20 was run?
Answer: The value was 164 ng/mL.

Question: With B21 as the binder, how does the “Ancestral Pseudovirus IC50” value read?
Answer: Its value is 4250 ng/mL.

Question: B22 was tested. Which “Ancestral Pseudovirus IC50” value did it give?
Answer: Its value is 5.57 ng/mL.

Question: For B23, which “Ancestral Pseudovirus IC50” value is on record?
Answer: Its value is 0.552 ng/mL.
